Experimental data published in the supplement of paper PMC11246515.
± gives the standard deviation of the averaged measurements.

Assay: total protein half-life in vivo (active degradation + dilution); higher = more stable protein
[1] = wild type E. coli NCM3722, growth: P-lim chemostat, doubling time 12 h
[2] = E. coli NCM3722 delta-clpP delta-lon delta-hslV, growth: N-lim chemostat, doubling time 6 h
[3] = E. coli NCM3722 delta-clpP, growth: N-lim chemostat, doubling time 6 h
[4] = E. coli NCM3722 delta-hslV, growth: N-lim chemostat, doubling time 6 h
[5] = E. coli NCM3722 delta-lon, growth: N-lim chemostat, doubling time 6 h
[6] = E. coli NCM3722 delta-smpB, growth: N-lim chemostat, doubling time 6 h
[7] = wild type E. coli NCM3722, growth: C-lim chemostat, doubling time 3 h
[8] = wild type E. coli NCM3722, growth: C-lim chemostat, doubling time 6 h
[9] = wild type E. coli NCM3722, growth: C-lim chemostat, doubling time 12 h
[10] = wild type E. coli NCM3722, growth: N-lim chemostat, doubling time 6 h
[11] = wild type E. coli NCM3722, growth: N-lim chemostat, doubling time 12 h
[12] = wild type E. coli NCM3722, growth: P-lim chemostat, doubling time 6 h

Sequence | total protein half-life in vivo [1] [h] | total protein half-life in vivo [2] [h] | total protein half-life in vivo [3] [h] | total protein half-life in vivo [4] [h] | total protein half-life in vivo [5] [h] | total protein half-life in vivo [6] [h] | total protein half-life in vivo [7] [h] | total protein half-life in vivo [8] [h] | total protein half-life in vivo [9] [h] | total protein half-life in vivo [10] [h] | total protein half-life in vivo [11] [h] | total protein half-life in vivo [12] [h]
MQRKTLLSACIALALSGQGWAADITEVETTTGEKKNTNVTCPADPGKLSPEELKRLPSECSPLVEQNLMPWLSTGAAALITALAVVELNDDDDHHHRNNSPLPPTPPDDESDDTPVPPTPGGDEIIPDDPDDTPTPPKPVSFNNDVILDKTEKTLTIRDSVFTYTENADGTISLQDSNGRKATINLWQIDEANNTVALEGVSADGATKWQYNHNGELVITGDNATVNNNGKTTVDGKDSTGTEINGNNGKVIQDGDLDVSGGGHGIDITGDSATVDNKGTMTVTDPESMGIQIDGDKAIVNNEGESTITNGGTGTQINGDDATANNNGKTTVDGKDSTGTEINGNNGKVIQDGDLDVSGGGHGIDITGDSATVDNKGTMTVTDPESIGIQVDGDQAVVNNEGESAITNGGTGTQINGDDATANNNGKTTVDGKDSTGTEIAGNNGKVIQDGDLDVSGGGHGIDITGDSATVDNKGTMTVTDPESIGIQIDGDQAIVNNEGESTITNGGTGTQINGNDATANNSGKTTVDGKDSTGTKIAGNIGIVNLDGSLTVTGGAHGVENIGDNGTVNNKGDIVVSDTGSIGVLINGEGATVSNTGDVNVSNEATGFSITTNSGKVSLAGSMQVGDFSTGVDLNGNNNSVTLAAKDLKVVGQKATGINVSGDANTVNITGNVLVDKDKTADNAAEYFFDPSVGINVYGSDNNVTLDGKLTVVSDSEVTSRQSNLFDGSAEKTSGLVVIGDGNTVNMNGGLELIGEKNALADGSQVTSLRTGYSYTSVIVVSGESSVYLNGDTTISGEFPLGFAGVIRVQDKALLEIGSGATLTMQDIDSFEHHGTRTLDLPLYFQTSVIT | 11 ± 1.1 |  |  |  |  |  |  |  |  |  |  | 
MPEATPFQVMIVDDHPLMRRGVRQLLELDPGSEVVAEAGDGASAIDLANRLDIDVILLDLNMKGMSGLDTLNALRRDGVTAQIIILTVSDASSDVFALIDAGADGYLLKDSDPEVLLEAIRAGAKGSKVFSERVNQYLREREMFGAEEDPFSVLTERELDVLHELAQGLSNKQIASVLNISEQTVKVHIRNLLRKLNVRSRVAATILFLQQRGAQ | 4.65 ± 0.4 | 5.05 ± 0.31 | 2.4265 ± 0.00011 | 2.17 ± 0.36 | 4.47 ± 1.4 | 2.02 ± 0.099 | 2.08 ± 0.15 | 3.41 ± 0.22 | 5.71 ± 1 | 2.3 ± 0.18 | 2.86 ± 0.24 | 2.62 ± 0.31
MSRSQNLRHNVINQVIDDMARGHIPSPLPSQSALAEMYNISRTTVRHILSHLRECGVLTQVGNDYVIARKPDHDDGFACTTASMSEQNKVFEQAFFTMINQRQLRPGETFSELQLARAAGVSPVVVREYLLKFGRYNLIHSEKRGQWSMKQFDQSYAEQLFELREMLETHSLQHFLNLPDHDPRWLQAKTMLERHRLLRDNIGNSFRMFSQLDRDFHSLLLSAADNIFFDQSLEIISVIFHFHYQWDESDLKQRNIIAVDEHMTILSALICRSDLDATLALRNHLNSAKQSMIRSINENTRYAH |  |  |  |  |  |  | 0.713 | 1.15 |  |  |  | 
MSEDIFDAIIVGAGLAGSVAALVLAREGAQVLVIERGNSAGAKNVTGGRLYAHSLEHIIPGFADSAPVERLITHEKLAFMTEKSAMTMDYCNGDETSPSQRSYSVLRSKFDAWLMEQAEEAGAQLITGIRVDNLVQRDGKVVGVEADGDVIEAKTVILADGVNSILAEKLGMAKRVKPTDVAVGVKELIELPKSVIEDRFQLQGNQGAACLFAGSPTDGLMGGGFLYTNENTLSLGLVCGLHHLHDAKKSVPQMLEDFKQHPAVAPLIAGGKLVEYSAHVVPEAGINMLPELVGDGVLIAGDAAGMCMNLGFTIRGMDLAIAAGEAAAKTVLSAMKSDDFSKQKLAEYRQHLESGPLRDMRMYQKLPAFLDNPRMFSGYPELAVGVARDLFTIDGSAPELMRKKILRHGKKVGFINLIKDGMKGVTVL |  |  |  |  |  |  |  |  | 9.28 |  |  | 
MKQWIAALLLMLIPGVQAAKPQKVTLMVDDVPVAQVLQALAEQEKLNLVVSPDVSGTVSLHLTDVPWKQALQTVVKSAGLITRQEGNILSVHSIAWQNNNIARQEAEQARAQANLPLENRSITLQYADAGELAKAGEKLLSAKGSMTVDKRTNRLLLRDNKTALSALEQWVAQMDLPVGQVELSAHIVTINEKSLRELGVKWTLADAQHAGGVGQVTTLGSDLSVATATTHVGFNIGRINGRLLDLELSALEQKQQLDIIASPRLLASHLQPASIKQGSEIPYQVSSGESGATSVEFKEAVLGMEVTPTVLQKGRIRLKLHISQNVPGQVLQQADGEVLAIDKQEIETQVEVKSGETLALGGIFTRKNKSGQDSVPLLGDIPWFGQLFRHDGKEDERRELVVFITPRLVSSE | 4.33 | 3.42 ± 1.4 |  |  |  |  |  |  | 6.11 |  | 4.56 | 
MSCPVIELTQQLIRRPSLSPDDAGCQALLIERLQAIGFTVERMDFADTQNFWAWRGQGETLAFAGHTDVVPPGDADRWINPPFEPTIRDGMLFGRGAADMKGSLAAMVVAAERFVAQHPNHTGRLAFLITSDEEASAHNGTVKVVEALMARNERLDYCLVGEPSSIEVVGDVVKNGRRGSLTCNLTIHGVQGHVAYPHLADNPVHRAAPFLNELVAIEWDQGNEFFPATSMQIANIQAGTGSNNVIPGELFVQFNFRFSTELTDEMIKAQVLALLEKHQLRYTVDWWLSGQPFLTARGKLVDAVVNAVEHYNEIKPQLLTTGGTSDGRFIARMGAQVVELGPVNATIHKINECVNAADLQLLARMYQRIMEQLVA [P0AED7] | 11 ± 1.8 | 4.94 ± 0.53 | 4.52 ± 0.093 | 4.42 ± 0.081 | 5.76 ± 1.5 | 4.4 ± 0.41 | 3.05 ± 0.25 | 5.7 ± 0.46 | 9.7 ± 0.28 | 4.418 ± 0.036 | 7.37 ± 0.72 | 5.6 ± 0.48
MTQANLSETLFKPRFKHPETSTLVRRFNHGAQPPVQSALDGKTIPHWYRMINRLMWIWRGIDPREILDVQARIVMSDAERTDDDLYDTVIGYRGGNWIYEWATQAMVWQQKACAEDDPQLSGRHWLHAATLYNIAAYPHLKGDDLAEQAQALSNRAYEEAAQRLPGTMRQMEFTVPGGAPITGFLHMPKGDGPFPTVLMCGGLDAMQTDYYSLYERYFAPRGIAMLTIDMPSVGFSSKWKLTQDSSLLHQHVLKALPNVPWVDHTRVAAFGFRFGANVAVRLAYLESPRLKAVACLGPVVHTLLSDFKCQQQVPEMYLDVLASRLGMHDASDEALRVELNRYSLKVQGLLGRRCPTPMLSGYWKNDPFSPEEDSRLITSSSADGKLLEIPFNPVYRNFDKGLQEITDWIEKRLC | 7.49 ± 0.46 | 5.5 ± 0.92 | 5.97 ± 1.6 | 3.64 ± 0.2 | 3.85 ± 0.3 | 3.78 ± 0.053 | 2.32 ± 0.07 | 3.76 ± 0.11 | 4.98 ± 0.59 | 3.52 ± 0.098 | 5.5 ± 0.077 | 4.41 ± 0.33
MKSILIEKPNQLAIVEREIPTPSAGEVRVKVKLAGICGSDSHIYRGHNPFAKYPRVIGHEFFGVIDAVGEGVESARVGERVAVDPVVSCGHCYPCSIGKPNVCTTLAVLGVHADGGFSEYAVVPAKNAWKIPEAVADQYAVMIEPFTIAANVTGHGQPTENDTVLVYGAGPIGLTIVQVLKGVYNVKNVIVADRIDERLEKAKESGADWAINNSQTPLGEIFTEKGIKPTLIIDAACHPSILKEAVTLASPAARIVLMGFSSEPSEVIQQGITGKELSIFSSRLNANKFPIVIDWLSKGLIKPEKLITHTFDFQHVADAISLFEQDQKHCCKVLLTFSE | 7.18 | 3.84 ± 0.53 |  |  |  | 2.11 | 2.26 ± 0.28 | 3.455 ± 0.03 | 8.98 ± 3.8 | 2.37 |  | 4.75
MALHDENVVWHSHPVTVQQRELHHGHRGVVLWFTGLSGSGKSTVAGALEEALHKLGVSTYLLDGDNVRHGLCSDLGFSDADRKENIRRVGEVANLMVEAGLVVLTAFISPHRAERQMVRERVGEGRFIEVFVDTPLAICEARDPKGLYKKARAGELRNFTGIDSVYEAPESAEIHLNGEQLVTNLVQQLLDLLRQNDIIRS [P0A6J1] | 3.52 ± 0.087 | 4.97 ± 0.48 | 3.79 ± 0.44 | 2.03 ± 0.21 | 2.4 ± 0.82 | 1.72 ± 0.06 | 1.86 ± 0.13 | 4.8 ± 3 |  | 2.41 | 2.47 | 2.07
